For the test, the target named is hMutSα (hMSH2-hMSH6), wild type (human, UniProt P43246 1-934; P52701 1-1360). Briefly: pull-down.

As to ARKSAPATGGVKKPHRYRP (dimethyl-lysine at K36; biotin (position not given)) [biotin-labeled histone H3 peptide with di-methylated K36], the binding result is “binds”.

The values are drawn from PMC3641580 (Cell, 2013).
